Measurements from publication PMC3595137 (Nature communications, 2013).
Changes are numbered by the printed parent chain.

T1: HA-α-SNAP M105I (hyh mutant) (human, UniProt P54920 1-295, M105I)
T1 sequence: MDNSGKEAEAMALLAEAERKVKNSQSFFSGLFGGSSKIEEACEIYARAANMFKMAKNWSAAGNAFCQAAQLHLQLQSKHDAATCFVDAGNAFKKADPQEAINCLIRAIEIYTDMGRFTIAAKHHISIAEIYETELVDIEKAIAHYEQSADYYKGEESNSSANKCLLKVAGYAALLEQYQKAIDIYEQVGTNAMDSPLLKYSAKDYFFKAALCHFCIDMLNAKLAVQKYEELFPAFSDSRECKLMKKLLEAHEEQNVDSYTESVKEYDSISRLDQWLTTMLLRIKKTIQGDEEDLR

B1: FLAG-AMPKα2 (natural protein)
chain: MAEKQKHDGRVKIGHYVLGDTLGVGTFGKVKIGEHQLTGHKVAVKILNRQKIRSLDVVGKIKREIQNLKLFRHPHIIKLYQVISTPTDFFMVMEYVSGGELFDYICKHGRVEEMEARRLFQQILSAVDYCHRHMVVHRDLKPENVLLDAHMNAKIADFGLSNMMSDGEFLRTSCGSPNYAAPEVISGRLYAGPEVDIWSCGVILYALLCGTLPFDDEHVPTLFKKIRGGVFYIPEYLNRSVATLLMHMLQVDPLKRATIKDIREHEWFKQDLPSYLFPEDPSYDANVIDDEAVKEVCEKFECTESEVMNSLYSGDPQDQLAVAYHLIIDNRRIMNQASEFYLASSPPSGSFMDDSAMHIPPGLKPHPERMPPLIADSPKARCPLDALNTTKPKSLAVKKAKWHLGIRSQSKPYDIMAEVYRAMKQLDFEWKVVNAYHLRVRRKNPVTGNYVKMSLQLYLVDNRSYLLDFKSIDDEVVEQRSGSSTPQRSCSAAGLHRPRSSFDSTTAESHSLSGSLTGSLTGSTLSSVSPRLGSHTMDFFEMCASLITTLAR
B2: purified recombinant α-SNAP (His-tagged, wild type) (natural protein)
chain: T1 sequence with I105M

Legend:
[1] = target: T1, HA-α-SNAP M105I (hyh mutant); experiment: co-IP
[2] = target: FLAG-tagged AMPK-γ1 (wild type) (UniProt P54619 1-331); experiment: pull-down
Chain of FLAG-tagged AMPK-γ1 (wild type) (P54619 whole entry): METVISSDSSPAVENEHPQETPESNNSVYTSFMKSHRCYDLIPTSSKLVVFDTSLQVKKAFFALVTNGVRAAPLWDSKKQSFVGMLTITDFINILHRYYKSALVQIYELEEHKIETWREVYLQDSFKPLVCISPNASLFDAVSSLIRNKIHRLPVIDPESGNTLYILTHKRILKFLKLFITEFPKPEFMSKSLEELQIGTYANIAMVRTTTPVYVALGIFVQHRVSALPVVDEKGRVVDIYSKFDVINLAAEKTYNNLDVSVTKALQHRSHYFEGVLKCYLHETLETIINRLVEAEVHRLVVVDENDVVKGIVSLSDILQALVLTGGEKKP

Binder	fold increase in co-immunoprecipitation against WT α-SNAP [1] [fold]	fold increase in binding with ATP against no nucleotide [2] [fold]
B1	~2	
B2		2
